Among the data in patent publication US7087711 (Harvard, dated 2006) are Ka values, retold here.

This experiment has as its target T1, TATA-binding protein (TBP) (yeast, UniProt P13393 1-240, limits assumed).
T1 construct: Soluble analyte, injected over Gal4 derivatives captured on DNA in SPR
T1 sequence (looked up): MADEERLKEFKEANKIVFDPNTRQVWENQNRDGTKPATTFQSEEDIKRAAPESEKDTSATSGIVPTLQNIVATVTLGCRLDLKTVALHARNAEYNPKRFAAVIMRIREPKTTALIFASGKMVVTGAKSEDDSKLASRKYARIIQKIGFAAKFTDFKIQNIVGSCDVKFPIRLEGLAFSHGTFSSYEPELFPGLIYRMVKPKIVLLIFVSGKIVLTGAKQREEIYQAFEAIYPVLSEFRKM
Nature of the experiment: SPR, Gal4 derivative captured on a DNA-bearing chip, TBP injected. How it is done:
PROTEIN—PROTEIN INTERACTIONS: The activators (GAL4 derivatives and other activating regions fused to GAL4 DNA binding domain) were first passed over the DNA-bearing chip. Typically 10 µl of 0.01 mg/ml protein solution (~1 µM) in HBS (10 mM HEPES pH 7.4, 150 mM NaCl, 0.0005% Surfectant P20, Pharmacia) were injected at a flow rate of 5 µl/min, and the DNA was saturated by the activators. This is indicated by the first increase of the RU value on the sensorgrams. Various proteins to be tested (e.g., TBP) were then injected (typically 20 µl of […] solution in HBS at a flow rate of 5 µl/min), and their binding to the activating regions was indicated by the second increase of the RU value on the sensogram. The DNA bearing chip was then regenerated by washing with 10 µl of 0.1% SDS, a procedure that washes both proteins off the DNA, but leaves the DNA bearing chip intact. The baseline of the sensorgrams always comes back to the original level after each regeneration. A different activator was then injected to the same surface at the same concentration, and the DNA was once again saturated with the activators. As a consequence the same number of the molecules of the activators was immobilized to the chip each time. The protein to be tested (e.g., TBP) was once again injected and its binding to this activator was compared to that of the previous one. […]

B1: GAL4(1-100)+(840-881) fusion (other, yeast, UniProt P04386 1-100, looked up)
chain: MKLLSSIEQACDICRLKKLKCSKEKPKCAKCLKNNWECRYSPKTKRSPLTRAHLTEVESRLERLEQLFLLIFPREDLDMILKMDSLQDIKALLTGLFVQDWTDQTAYNAFGITTGMFNTTTMDDVYNYLFDDEDTPPNPKKE
notes: range 1-100;range 840-881; also called G4RII' (as Gal4(840-881)) fused to Gal4(1-100); RJR182
Turning to B1, the Ka was determined as 6e+06 M⁻¹.

B2: GAL4(1-100)+(840-857) (other, yeast, UniProt P04386 1-100, looked up)
chain: MKLLSSIEQACDICRLKKLKCSKEKPKCAKCLKNNWECRYSPKTKRSPLTRAHLTEVESRLERLEQLFLLIFPREDLDMILKMDSLQDIKALLTGLFVQDWTDQTAYNAFGITTGMFN
notes: range 1-100;range 840-857
Molecule B2 had a Ka of 2e+06 M⁻¹.
